From patent US20110287512

Tests used:
[1] = system: ZFP8196 (host, center linker TGEKP) (artificial); assay: ELONA
[2] = system: ZFP8196 linker 1c center linker F2-F3 TGEKP replaced by THPRAPIPKP (artificial); assay: ELONA; details: normalized ELISA score
[3] = system: ZFP8196 linker 1d center linker F2-F3 TGEKP replaced by TPNRRPAPKP (artificial); assay: ELONA; details: normalized ELISA score
[4] = system: ZFP8196 linker 1f center linker F2-F3 TGEKP replaced by TYPRPIAAKP (artificial); assay: ELONA; details: normalized ELISA score
[5] = system: ZFP8196 linker 2d center linker F2-F3 TGEKP replaced by TLAPRPYRPPKP (artificial); assay: ELONA
[6] = system: ZFP8196 linker 2e center linker F2-F3 TGEKP replaced by TPGGKSSRTDRNKP (artificial); assay: ELONA
[7] = system: ZFP8196 linker 2f center linker F2-F3 TGEKP replaced by TPNPHRRTDPSHKP (artificial); assay: ELONA
[8] = system: ZFP8196 linker LRQKDERP center linker F2-F3 TGEKP replaced by LRQKDERP (artificial); assay: ELONA; details: normalized ELISA score
[9] = system: ZFP8196 linker LRQKDGGGSERP (Kim, Pabo) center linker F2-F3 TGEKP replaced by LRQKDGGGSERP (artificial); assay: ELONA
[10] = system: ZFP8196 linker TASCPRPFRPPKP center linker F2-F3 TGEKP replaced by TASCPRPFRPPKP (artificial); assay: ELONA; details: normalized ELISA score
[11] = system: ZFP8196 linker TCPRPPTRKP center linker F2-F3 TGEKP replaced by TCPRPPTRKP (artificial); assay: ELONA; details: normalized ELISA score
[12] = system: ZFP8196 linker TEPRAKPPKP center linker F2-F3 TGEKP replaced by TEPRAKPPKP (artificial); assay: ELONA; details: normalized ELISA score
[13] = system: ZFP8196 linker TETTRPFRPPKP center linker F2-F3 TGEKP replaced by TETTRPFRPPKP (artificial); assay: ELONA; details: normalized ELISA score
[14] = system: ZFP8196 linker TGEARPYRPPKP center linker F2-F3 TGEKP replaced by TGEARPYRPPKP (artificial); assay: ELONA; details: normalized ELISA score
[15] = system: ZFP8196 linker TGEGGKP center linker F2-F3 TGEKP replaced by TGEGGKP (artificial); assay: ELONA; details: normalized ELISA score
[16] = system: ZFP8196 linker TGGGGSGGSQKP (flexible) center linker F2-F3 TGEKP replaced by TGGGGSGGSQKP (artificial); assay: ELONA
[17] = system: ZFP8196 linker TGGGGSQKP center linker F2-F3 TGEKP replaced by TGGGGSQKP (artificial); assay: ELONA; details: normalized ELISA score
[18] = system: ZFP8196 linker TGSLRPYRRPKP center linker F2-F3 TGEKP replaced by TGSLRPYRRPKP (artificial); assay: ELONA; details: normalized ELISA score
[19] = system: ZFP8196 linker TGYSIPRPKP center linker F2-F3 TGEKP replaced by TGYSIPRPKP (artificial); assay: ELONA; details: normalized ELISA score
[20] = system: ZFP8196 linker TNTTRPYRPPKP center linker F2-F3 TGEKP replaced by TNTTRPYRPPKP (artificial); assay: ELONA; details: normalized ELISA score
[21] = system: ZFP8196 linker TPDAPKPKP center linker F2-F3 TGEKP replaced by TPDAPKPKP (artificial); assay: ELONA; details: normalized ELISA score
[22] = system: ZFP8196 linker TPDRPISTCKP center linker F2-F3 TGEKP replaced by TPDRPISTCKP (artificial); assay: ELONA; details: normalized ELISA score
[23] = system: ZFP8196 linker TPGLHRPKP center linker F2-F3 TGEKP replaced by TPGLHRPKP (artificial); assay: ELONA; details: normalized ELISA score
[24] = system: ZFP8196 linker TPSHTPRPKP center linker F2-F3 TGEKP replaced by TPSHTPRPKP (artificial); assay: ELONA; details: normalized ELISA score
[25] = system: ZFP8196 linker TSINRPFRRPKP center linker F2-F3 TGEKP replaced by TSINRPFRRPKP (artificial); assay: ELONA; details: normalized ELISA score
[26] = system: ZFP8196 linker TSPRLPAPKP center linker F2-F3 TGEKP replaced by TSPRLPAPKP (artificial); assay: ELONA; details: normalized ELISA score
[27] = system: ZFP8196 linker TSSPRSNAKP center linker F2-F3 TGEKP replaced by TSSPRSNAKP (artificial); assay: ELONA; details: normalized ELISA score
[28] = system: ZFP8196 linker TVSPAPCRSKP center linker F2-F3 TGEKP replaced by TVSPAPCRSKP (artificial); assay: ELONA; details: normalized ELISA score
[29] = system: ZFP7263 (host, center linker TGSQKP) (artificial)
[30] = system: ZFP7263 linker LRQKDERP (artificial)
[31] = system: ZFP7263 linker TGEGGKP (artificial)
[32] = system: ZFP7263 linker TGGGGSQKP (artificial)
[33] = system: ZFP7263 linker TPLCQRPMKQKP (artificial)
[34] = system: ZFP7263 linker TPNRCPPTKP (artificial)
[35] = system: ZFP7263 linker TPRPPIPKP (artificial)
[36] = system: ZFP7263 linker TQRPQIPPKP (artificial)
[37] = system: ZFP7263 linker TYPRPLLAKP (artificial)
[38] = system: ZFP7264 (host, center linker TGSQKP) (artificial)
[39] = system: ZFP7264 linker 1e (artificial)
[40] = system: ZFP7264 linker LRQKDERP (artificial)
[41] = system: ZFP7264 linker TGEGGKP (artificial)
[42] = system: ZFP7264 linker TGGGGSQKP (artificial)
[43] = system: ZFP7264 linker TGLPKPKP (artificial)
[44] = system: ZFP7264 linker TKHGTPKHREDKP (artificial)
[45] = system: ZFP7264 linker TLPLPRPKP (artificial)
[46] = system: ZFP7264 linker TLPPCFRPKP (artificial)
[47] = system: ZFP7264 linker TSRPRPKP (artificial)
[48] = system: ZFP7264 (host, center linker TGSQKP) (artificial); assay: ELONA
[49] = system: ZFP7264 linker 1e center linker F2-F3 TGSQKP replaced by TVPRPTPPKP (artificial); assay: ELONA; details: normalized ELISA score
[50] = system: ZFP7264 linker LRQKDERP center linker F2-F3 TGSQKP replaced by LRQKDERP (artificial); assay: ELONA; details: normalized ELISA score
[51] = system: ZFP7264 linker TGEGGKP center linker F2-F3 TGSQKP replaced by TGEGGKP (artificial); assay: ELONA; details: normalized ELISA score
[52] = system: ZFP7264 linker TGGGGSQKP center linker F2-F3 TGSQKP replaced by TGGGGSQKP (artificial); assay: ELONA; details: normalized ELISA score
[53] = system: ZFP7264 linker TGLPKPKP center linker F2-F3 TGSQKP replaced by TGLPKPKP (artificial); assay: ELONA; details: normalized ELISA score
[54] = system: ZFP7264 linker TKHGTPKHREDKP center linker F2-F3 TGSQKP replaced by TKHGTPKHREDKP (artificial); assay: ELONA; details: normalized ELISA score
[55] = system: ZFP7264 linker TLPLPRPKP center linker F2-F3 TGSQKP replaced by TLPLPRPKP (artificial); assay: ELONA; details: normalized ELISA score
[56] = system: ZFP7264 linker TLPPCFRPKP center linker F2-F3 TGSQKP replaced by TLPPCFRPKP (artificial); assay: ELONA; details: normalized ELISA score
[57] = system: ZFP7264 linker TSRPRPKP center linker F2-F3 TGSQKP replaced by TSRPRPKP (artificial); assay: ELONA; details: normalized ELISA score
[58] = ELISA normalized to host on 0-bp gap target (reference)
[59] = normalized ELISA score averaged over 16 2-bp gaps

Sequence: TTAGATAAACTGCAAAAGGCTATC (double strand) [8196 target 0-bp gap]
- binding signal [1, 58]: 1
- binding signal [2]: 0
- binding signal [3]: 0
- binding signal [4]: 0.01
- binding signal ([5]; normalized ELISA score): 0.005
- binding signal ([6]; normalized ELISA score): 0.005
- binding signal ([7]; normalized ELISA score): 0.003
- binding signal [8]: 0.01
- binding signal ([9]; normalized ELISA score): 0.01
- binding signal [10]: 0.01
- binding signal [11]: 0
- binding signal [12]: 0.01
- binding signal [13]: 0.001
- binding signal [14]: 0.001
- binding signal [15]: 0.1
- binding signal ([16]; normalized ELISA score): 0.019
- binding signal [17]: 0
- binding signal [18]: 0.001
- binding signal [19]: 0.01
- binding signal [20]: 0.001
- binding signal [21]: 0.02
- binding signal [22]: 0.01
- binding signal [23]: 0.04
- binding signal [24]: 0.02
- binding signal [25]: 0.01
- binding signal [26]: 0.01
- binding signal [27]: 0.01
- binding signal [28]: 0.01

Sequence: TTAGATAAACTGNNCAAAAGGCTATC (double strand) [8196 targets 2-bp gap, all 16 compositions]
- binding signal [5, 59]: 0.127
- binding signal [6, 59]: 0.1
- binding signal [7, 59]: 0.219
- binding signal [9, 59]: 0.003
- binding signal ([10]; pool of 16 2-bp gaps): 0.37
- binding signal ([13]; pool of 16 2-bp gaps): 0.57
- binding signal ([14]; pool of 16 2-bp gaps): 0.61
- binding signal [16, 59]: 0.01
- binding signal ([18]; pool of 16 2-bp gaps): 0.31
- binding signal ([20]; pool of 16 2-bp gaps): 0.41
- binding signal ([25]; pool of 16 2-bp gaps): 0.57

Sequence: TTAGATAAACTGTCAAAAGGCTATC (double strand) [8196 target gap T]
- binding signal ([1]; normalized ELISA score): 0.01
- binding signal [2]: 0.6
- binding signal [3]: 0.52
- binding signal [4]: 0.64
- binding signal [8]: 0.08
- binding signal [11]: 0.62
- binding signal [12]: 0.93
- binding signal [15]: 0.03
- binding signal [17]: 0
- binding signal [19]: 0.55
- binding signal [21]: 0.95
- binding signal [22]: 0.47
- binding signal [23]: 0.81
- binding signal [24]: 0.8
- binding signal [26]: 0.81
- binding signal [27]: 0.25
- binding signal [28]: 0.19

Sequence: TTAGCCACTCTGATTGGAAGTGTATC (double strand) [7263 target gap AT]
- binding signal (normalized ELISA) [29]: 0.01
- binding signal (normalized ELISA) [30]: 0.01
- binding signal (normalized ELISA) [31]: 0.01
- binding signal (normalized ELISA) [32]: 0.01
- binding signal (normalized ELISA) [33]: 0.05
- binding signal (normalized ELISA) [34]: 0.02
- binding signal (normalized ELISA) [35]: 0.01
- binding signal (normalized ELISA) [36]: 0.02
- binding signal (normalized ELISA) [37]: 0.01

Sequence: TTAGCCACTCTGCTTGGAAGTGTATC (double strand) [7263 target gap CT]
- binding signal (normalized ELISA) [29]: 0
- binding signal (normalized ELISA) [30]: 0.01
- binding signal (normalized ELISA) [31]: 0.01
- binding signal (normalized ELISA) [32]: 0.02
- binding signal (normalized ELISA) [33]: 0.02
- binding signal (normalized ELISA) [34]: 0.01
- binding signal (normalized ELISA) [35]: 0.01
- binding signal (normalized ELISA) [36]: 0.01
- binding signal (normalized ELISA) [37]: 0.01

Sequence: TTAGTTAAAGCGCTGCTCCGAATATC (double strand) [7264 target gap CT]
- binding signal (normalized ELISA) [38]: 0
- binding signal (normalized ELISA) [39]: 0.06
- binding signal (normalized ELISA) [40]: 0.02
- binding signal (normalized ELISA) [41]: 0.03
- binding signal (normalized ELISA) [42]: 0.07
- binding signal (normalized ELISA) [43]: 0.02
- binding signal (normalized ELISA) [44]: 0
- binding signal (normalized ELISA) [45]: 0.03
- binding signal (normalized ELISA) [46]: 0.05
- binding signal (normalized ELISA) [47]: 0.03

Sequence: TTAGTTAAAGCGGCTCCGAATATC (double strand) [7264 target 0-bp gap]
- binding signal [48, 58]: 1
- binding signal [49]: 0.16
- binding signal [50]: 0.26
- binding signal [51]: 1.39
- binding signal [52]: 0.46
- binding signal [53]: 0.14
- binding signal [54]: 0.01
- binding signal [55]: 0.25
- binding signal [56]: 0.36
- binding signal [57]: 0.18

Sequence: TTAGTTAAAGCGTGCTCCGAATATC (double strand) [7264 target gap T]
- binding signal ([48]; normalized ELISA score): 0
- binding signal [49]: 2.55
- binding signal [50]: 0.1
- binding signal [51]: 0.08
- binding signal [52]: 0.17
- binding signal [53]: 0.86
- binding signal [54]: 0.01
- binding signal [55]: 1.36
- binding signal [56]: 2.72
- binding signal [57]: 2.07
